In the supplement of paper PMC10567573:

B1: HSP90AB1 (parent)
chain: QVANSAFVERVRKRGFEVVYMTEP

Variants of: B1
Assay: protein stability index of a GFP-peptide fusion (GPS, HEK-293T) (PSI 1-6); higher = more stable
Settings: c terminus: a fixed tail appended
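Note: lentivirally expressed fusions sorted by FACS into six bins by GFP to DsRed ratio, PSI derived from sequencing read proportions per bin multiplied by bin number.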

Protein stability index: each site, then its substitutions
R12: H 2.53, T 2.09, G 2.59, P 2.74, A 2.18, F 2.13, V 2.16, C 1.98, S 2.87, E 3.16, D 3.5, L 2.1, K 3.12, W 1.6, Q 2.35, N 2.63, M 2.01
K13: F 1.58, G 1.34, W 2.48, D 2.67, P 2.63, Y 1.75, N 2.24, L 2.49, A 2.42, R 2.43, C 1.61, S 2.83, T 2.35, H 1.95, Q 2.2, M 1.53, I 1.51, V 1.54
Y20: G 3.52, N 3.62, I 1.78, D 3.06, H 3.07, Q 3.41, T 2.69, R 3.23, K 2.6, A 2.62, W 1.96, C 2.99, E 3.37, V 3.05, P 2.81, L 2.22
V11: L 1.69, Q 3.2, H 2.73, R 2.43, K 1.85, P 2.48, M 2.11, G 2.56, T 2.83, F 2.09, S 2.61, Y 2.17, I 1.79, W 1.34
V19: P 2.79, R 2.57, M 1.84, T 2.93, N 3.15, K 2.69, E 3.43, W 1.42, G 2.75, Q 2.33, L 2.09, F 1.53, Y 1.98, C 2.79, A 2.83, S 2.68, I 2.15
G15: I 1.81, R 1.98, S 2.38, Y 1.61, F 2.21, D 3.3, M 2.07, K 2.12, L 1.83, T 2.72, N 2.61, V 2.19, C 1.79, W 1.91, P 2.75, E 2.56, H 1.66, A 2.01
V18: C 2.38, N 3.1, W 2.05, T 2.67, D 2.88, E 2.99, Q 2.59, A 2.96, L 2.58, K 2.12, P 2.47, H 2.83, F 1.85, S 2.57
F16: N 3.3, L 2.52, C 2.71, H 3.05, T 3.1, A 3.87, Q 4.2, P 3.05, G 3.28, D 4.16, Y 2.11, K 3.2, I 2.61, S 3.64, E 4.47, R 2.98, W 2.04, M 2.73, V 2.64
R14: I 2.56, G 2.09, C 1.36, H 1.98, M 1.6, F 1.92, K 2.54, V 1.65, E 2.75, L 2.03, P 2.51, S 2.26, D 3.23, N 2.69, Q 2.1, Y 2.21, W 2.16
E17: M 2.15, R 2.19, K 2.02, Y 2.6, H 1.76, N 2.32, I 2.75, Q 1.51, C 2.44, T 1.87, P 2.02, D 2, A 1.26, G 2.88, F 4.31, V 1.89, S 2.49
